Data reported in a protein production outcome set (Wang et al. 2014).

Test: label from the status in PepcDB records
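Also: failed if final PepcDB status was selected cloned or expressed and not failed if soluble or beyond.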

Sequence	protein production
MKKVRFLLLAAMVAMFTGCQKEVAEQELDNNKPTPTGDTRIIIEGEGMIGPVTRSSDGKVEFEGGYATGAGLYNGDAQPKVAAHPDAGYEVNYFYGGPENELHRYDYAQSGSSTFDVKLKGEDHTFRCGFKEKKRNLTVNTGTGGSVSPAGTNSYRVEKAISITATPDSGYEFAGWTITEGDVTIENPGSPATTATLHNDNSTITANFKSGAELVFTVRASANKIVPMPVLGSGPYIIDYGDGTVAQEVDLRAPGYTQYPGSYHTYSADGEYTVTIKGPAATAFSFRGTRNSDLQYTNPCPAKSILKNTIDISCVTSLENAFSGMKSLESIKCDLFESCKGRVTTCANIFDQCTNLHTIYNGLFEGFDKCTDFSLAFHYTALNSIPANTFRGCSSAVKFNSTFSAIPNILSIPAGLFDDCVNAQEFASTFELLNISTVPERLFAKCVKATFFRGTFRQSHVTTVPGNVFENCRAIENVSSCFENCSWITSLPEMWNTSLYPKIKTYNAFAKNCNKASNYSAVPAAWK	failed
MKKWRFLGIDDSFDDRKCCVVGCVTCGGYVEGFLYTEIDIDGLDATDKLISMVRRSKFREQIKCIFLPGITLGGFNLVDIQRVYRETKIPVVVVMRRKPDMEEFDSAMRNLENYELRRKIVEVAGEIHRIGDIYIQTAGLTPSEAEKLVKASLIKGNMPEPVRISHLVASAIIHGESR	not failed
MKKYFLKCGYFLVCFCLPLIVFANPKTDNERFFIRLSQAPLAQTLEQLAFQQDVNLVIGDILENKISLKLNNIDMPRLLQIIAKSKHLTLNKDDGIYYLNGSQSGKGQVAGNLTTNEPHLVSHTVKLHFAKASELMKSLTTGSGSLLSPAGSITFDDRSNLLVIQDEPRSVQNIKKLIAEMDKPIEQIAIEARIVTITDESLKELGVRWGIFNPTENARRVAGSLTGNSFENIADNLNVNFATTTTPAGSIALQVAKINGRLLDLELSALERENNVEIIASPRLLTTNKKSASIKQGTEIPYIVSNTRNDTQSVEFREAVLGLEVTPHISKDNNILLDLLVSQNSPGSRVAYGQNEVVSIDKQEINTQVFAKDGETIVLGGVFHDTITKSEDKVPLLGDIPVIKRLFSKESERHQKRELVIFVTPHILKAGETLEALKQKSEGKKLEHHHHHH	failed
MKLAASLNRLSPKRLFRTKSKASVSRSEPSSFSSNASSSSSDGSYGNLKQGPTATPISVLPQNSGDFYTELVQAFKLIDRDDDGVVSRGDLAALISRLSHEPPSQEEVSLMLREVDGGDGGCISLEDLASRVAGTSGEGSVETEELREVFEIFDVDRNGKISAEELHRVFGVIGDERCTLEECMRMIATVDGNGDGFVCFDDFCRMMVPAMNDHHH	failed
MKLAIVTACPGGQVTSVLAARLLRGAAERLGWETCVEANAGSRPEGELSAEQIAEADWVLLVGVEPLAAARFVGKPVYRARPAEALADPRAFLQRAAALASVEVAGDEAGLVAPEAGAAPRIVAVTACPTGVAHTFMAAEALQLAAGQLGFALQVETQGSVGARNPLDPADIAAADVVLLAADIDVDTARFAGKKIYRCGTGVALKQARATLERALAEGQVESAGAASAVVARDEKRGVYKHL	failed
MKLAVISSIYKNDSLSKIKQSLQSLLNQENVTCDIYLYCDGPVSIDIVHFLDSFDQNSLYIFKQEQNRGLAHALNELLNIVLTKEYEYIARMDADDISMPERFVKQIAFMNSHPDIDCLGTWAIEIDDDGKEYFRKKMPITHEECLELFKKRDCMIHPTVMFRRSYFEKAGLYPEDTYFGEDTMMWAKGFKSGCKFANVPEYLFKFRLDSNFFERRRGWKHAKSIYTLRHRVNRMLGFGWKEDCYALLYAMAKLMPKSILDIIYKTVR	failed
MKLERFYRDTILLTMSNFATGILKFIFSVILSEKLGAEGVGLYQLIMPVYDLFCCLVCGGLNIAVSRKVAILSGKNDYSNVNSLIKISSLFCFIWSSLVAVILFFNSRFISNSFIKDMRSLYSLELICPALIFVTISAILKGYFYGISKAKVPAYIDILEKASRVGIVIAIINIFMLKSISKTVTAVYGVLSLGEFISLIALYIAFLIYRRNLRPVYSDRESSGQLIFDVFSVSIPLCINSFVSSLLAAASTLILPVRLVHAGFLHSEALSLIGKFSGMALIVTSFPVVIIVAMSTVLIPEISQNLNKRDYYSIEKRVTQVLKISFFLGTITMIIALSIPNLLGKLFFSRNDLGNYIAASALSVPVDYTSFATFSILSGLGKQNKLLINSLIVSIEQLILLYVLTGIRFINIYGYAITLFVTCLTAYILNMKEIRKVCYIRFSFVDMFIDTLLCILVYLILSILNNIVPNRFILPKTLFIIILGFVLFTFAITKIKDKLK	failed
MKLFFTDGQFAVAGYSRPDVPFLCDAEMELVDAPNRYLRYIATVKGRTRAANTWRTYGAALYEFFAFLEANGLAWDRVDQSQIAAWRDTMLERGCARSTVNQRLRTVDAFYNWAKSNGMTHSIPFDRTDVWVAKPRGFLAHVDASGDRFEANSLTVQTHKVTPQFLHLDRAIRFLDALTPYRMRLMGYLALLTGMRREEVVSMDCRVLPNPAGRDSNKQIPMHLDPSITPTKGEKDRTVMLPYDLAVALYQYFTFERSRLLAKHRAKFGIETTLLFLSQTGDPLSVNGLNNAFRRVSQKTGIWCTPHMLRHTFGTYELMRMSRQKTQTQALLWVRDRMGHNSITTTEIYVHAADLVEHDDVDGYHLDICRALAHGNPTSKT	failed
MKLICYILLILLIPAIPVGAQTLSGGQVQVSNQSILISDNGQVMIGMDITLPAAMELSSNCVATLTPVLKTQDNSYNRILPAIWVYGRIRSIVQQRERSIPSDAYTILRRKNGTEQTVNYSARIPYEKWMNGAELELQAAIRGCADCQKEENSAFITRANLERYVVKPVVAFVSPAVEAVKNRAEEGRAYLDFPVNQMNIYPDYRRNPSELAAIKHTVDVVKNDVNTTITEIAIVGYASPEGRYAANARLAQGRAEALKSYVMNEYGFKADLFKVNSVPEDWAGLRAYVAKNDLPLKEEILSIIDKNESDFDVKEERIKALDGGKVYAALLQDCYPALRHSDYTVRYVVRGFDVEEAKQIIKLRPQQLSLQEMFLVAQTYEKGSDEFNEVFDVAVRMFPDDPTANINAAAIELQRGDLQQAVRYLDKADAQASATLNNRGVLKLLQGDLDSAENYFKQAQAKDSVEAGANLEEVTNKRKDEAIFVK	failed
MKLIDLHVHSYHSDGVLAPAVLVAMAAERGLASLAIADHDAVDGIDEAVAEGVRLGVDVIPAVELSVELGRFSDLHILGYCIDHHDPAFRDKLAGFRSARDNRGKAILEKINRRLLHSRKAPLSYDEVLSMAGGAVGRPHIGRVLVDNGYARDMEDAFRRYLIPCNVPKRYMPAGEAIAEIRRIGGVSVLAHPPTITDDRRRLRQVVEQLAQLGLDGLEVFNNLCFKDDMLYLERLAEEFGLLMTGGSDFHGFEDDVELGRGRGGLAVAHSLAEKVKELAAQRKHSHA	failed
MKLINKSIPSIRLSEFISEIEDCLAATFYGDTFWITTEISDVNKKPDKRWCYLKLIEKEGKNVTAEIGAVFWTPGYAYIEKFEKETKQLFKDGLEITCRVKVTFHKRWGLKLEIVEIDYAYTLGKLEAERQETLDRLVKENPDYVRLVGEQYYTFNKSLPLPAVVQRIALITAPESDGQRDFRQELGNNPYGYAFHVDEFVTQIQGDKAHEFIIGKLLLIEAQKEKYDVVAIVRGGGSQLDLKAFDAYDLAQRIASFPVPILTGIGHDRNTSIADLMARQEKTPTKVANVIIQRNFQFEQTVLILKERMVHTVDGLFTNAKNNLKEIKRFVKASNPLTILKKGFAIVKQDNVIITDPSAIDVGTEIQIQFDKETVQSTVTKKKKNGK	failed
MKLINTTWTHQELVNNQLDNTDAFLVETYSAGNTDVVFTQAPKHYELLISNKHRAVKDNELEVIREFFLKRKIDKDIVLMDKLRTVHTDKLIEISFPTTV	not failed
MKLKNEQQQSWLSLAFVWAGAMISVPGLIIGGTLVAGMPLWEALLTGFIGYGIIVILMILQGIQSSDLQEPSVKVASQVFGIQGSQKIISIILAIACLGWFGLQANVSGGAFTNFLKIYGIDLPVSLSSLIWGIIMLISALYGIKILKILNYFAVPVLVLVCLYGLVASLRNNGWAAVSQYTPQTAGSFMSGLSMTVGSFALGAVIAGDYSQYVSSRKDVVKAATLGILPTGLLMIGVGAVLTIASNTADITEVFMNLGFPVLGIIALILATWTTNAVNAFSGGLALINVFDIPKEKEKVAVGAAGAIGTLLAVVGILNYFTPIMSVLSAMVPPVAGVMIAAYWLINKGDRTKWQPTPGVNKLGVFSWLIGAAVGGIPVIMSFFPNAPQLPNQPLIGIVLSFVIYYFGAKRQQTNTESLEME	failed
MKLKNPLDMHLHLRDNQMLELIAPLSARDFCAAVIMPNLIPPLCNLEDLKAYKMRILKACKDENFTPLMTLFFKNYDEKFLYSAKDEIFGIKLYPAGITTNSNGGVSSFDIEYLKPTLEAMSDLNIPLLVHGETNDFVMDRESNFAKIYEKLAKHFPRLKIVMEHITTKTLCELLKDYENLYATITLHHLIITLDDVIGGKMNPHLFCKPIAKRYEDKEALCELAFSGYEKVMFGSDSAPHPKDTKECCGCAAGVFSAPVILPVLAELFKQNSSEENLQKFLSDNTCKIYDLKFKEDKILTLEEKEWQVPNVYEDKYNQVVPYMAGEILKFQLKH	not failed
MKLLLLLIIALEISFTTIVSLNVALIILALIYLLGHRTRLRTLGWLLLIPLLPAIGLWSTQYINGSGDKTLMAWVLFTRIYAFVFTGATFTLTTDVLQLTDSLEQNWHLPAKFAYGVLAAYNLVPRIQHEVQVIRAAGLMRGQVLSFWSPQLYFKAILVSINWSQNLARAMRSHGFVEDAPRTHYRQIPLTKLDWTIVISGVLLLQVGAFVIPWR	failed
MKLMQIRKPLLKSSLLDQNLTEEEVNMKFVQDLLNWVDEMQVQLDRTEWGSDLPSVESHLENHKNVHRAIEEFESSLKEAKISEIQMTAPLKLSYTDKLHRLESQYAKLLNTSRNQERHLDTLHNFVTRATNELIWLNEKEESEVAYDWSERNSSVARKKSYHAELMRELEQKEESIKAVQEIAEQLLLENHPARLTIEAYRAAMQTQWSWILQLCQCVEQHIQE	not failed
MKLNIKISDKLKLFFKIAFVSVVILFIVREFTSVFKNFNSEYFFMYRNKLDFLNLLIIAALGIISYIPLSFYDFILKRKVGIRLKNRKLYKYSWIASSIASLLGFGGATSLAFKQYFYGDYVDDKKKLLKEIGKIVALNLTGLSIVCCTYMGIRISSWNNLGIIKYAIGIIALYAPGFIIYSAYKYSKTKDKLEFFSTLGIIFISFLEWLTTIILIYATLRITGASISVLTFLPIYIEAAVVGMISMIPGGIGTFDLTFMTGLEVLGIPIEQTLLVIILYRISYYIVPALIGVLLFVHDFGGKINKKFNGLPYEIVSKVAYKIVVSLVFISGAIIVLSNIAPQYLLKIKLLKEILGKQVLGLSIGMSVVLGFLIMLAALMLKYRAKSIYKASMVLFILGIILSLTKGINPYELVFLIIVAYLLYLSKRMFYRDSFVVSCKNTLIDSGILIASFSIYFFILITFGTHLKYVGIVRKMPYKMAYKFGFIAFALVTVIYVAIYFLNIRRKIPVKTFDQCSEYVEKIIEEYKGDSLTHLVFLKDKYIYLNEDKDLFIQYEVYGDKLFVLGNPVGNNENLFREIEKFCEYADNYGYTPVFYQVNDEMISYLHSNGYDFMKIGEEAKVDVKEFKVVGNKMKSLKTSRSKVTKEGYTFHMVEPPFSKEFLDSLREISDEWLDGRKEKGFSVGFFDEDYLNKAPIAILKDREGEIKAFANIMYMYDNESFSVDLMRFSKNTPRGVMDFMFINLIEYGKENGYEIFNMGMAPLANVGLSKYAFWNEKLALQFYENGQALYSFKGLRRFKEKFSHNWEYKYIAYRRNTSILITVIQAAIVCSRNRNVDESIVVRNLKSLIK	failed
MKLPLHKILKNGATVELDYIKPQEYEDVRRLLNVVIDEGQTYPQKQPLSQQEFAAYWLSQDAFVIRLSGEDGTQKPQTILGSFYIKPNFPGRCSHICNAGFIVQPGLRGQGIGKFMGESMLLVAAQLGYEAVMFNLVFETNIPSITLWQSLGFDIIGSVPDAAKLADGKVVKALIMYRALGV	not failed
